Data as given in US20240343817A1 (STAIDSON BEIJING BIOPHARMACEUTICALS, published 2024).
Where a chain is given by its changes, count along the chain named.

B1: D21 (antibody, human IgG4, V domains shown)
VH: QVQLVQSGAEVKKPGASVKVSCKASVYSFTGYTVNWVRQAPGQRLEWMGLINPRNGGTTYNQKFKGRVTLTIDKSASTAYMELSSLRSEDTAVYYCAWSYYSNPYAMDYWGQGTLVTVSS
VL: EIVMTQSPATLSVSPGERATLSCKASQNVHTRVAWYQQKPGQAPRLLIYLASDRRTGIPARFSGSGSGTEFTLTISSLQSEDFAVYYCLQHWNYPLTFGQGTKVEIK
notes: also called optimized anti-CD40 antibody D21
B2: D48 (antibody, human IgG4, V domains shown)
VH: B1 VH with R54S, W98S, M107N
VL: B1 VL with R32H
B3: D31 (antibody, human IgG4, V domains shown)
VH: B1 VH with R54Y, T59S, W98S, M107A
VL: B1 VL
B4: D51 (antibody, human IgG4, V domains shown)
VH: B1 VH with R54E, W98S, M107N
VL: B1 VL
B5: D34 (antibody, human IgG4, V domains shown)
VH: B1 VH with R54Y, W98S, N103R
VL: B1 VL with N93S
B6: D29 (antibody, human IgG4, V domains shown)
VH: B1 VH with R54M, W98S, M107G
VL: B1 VL with Y94R
B7: D35 (antibody, human IgG4, V domains shown)
VH: B1 VH with T33L, R54Y, W98S
VL: B1 VL with R32A
B8: D45 (antibody, human IgG4, V domains shown)
VH: B1 VH with R54Y, T59S, W98S, Y100I
VL: B1 VL with Y94Q
B9: D27 (antibody, human IgG4, V domains shown)
VH: B1 VH with N52V, R54Y, W98S, Y100G
VL: B1 VL with R32N
B10: D43 (antibody, human IgG4, V domains shown)
VH: B1 VH with R54T, T59S, W98S, M107S
VL: B1 VL with L21M
B11: D22 (antibody, human IgG4, V domains shown)
VH: B1 VH with R54Y, N55T, W98S, N103K
VL: B1 VL with N93T
B12: D38 (antibody, human IgG4, V domains shown)
VH: B1 VH with L50M, R54Y, W98S, N103V
VL: B1 VL
B13: D32 (antibody, human IgG4, V domains shown)
VH: B1 VH with R54Y, N55H, W98S, Y100S
VL: B1 VL
B14: D41 (antibody, human IgG4, V domains shown)
VH: B1 VH with R54Y, N55S, W98S, Y100P
VL: B1 VL with Y94A
B15: D39 (antibody, human IgG4, V domains shown)
VH: B1 VH with R54Y, W98S, M107Q
VL: B1 VL
B16: D36 (antibody, human IgG4, V domains shown)
VH: B1 VH with R54Y, W98S, Y100R
VL: B1 VL with R32H
B17: D28 (antibody, human IgG4, V domains shown)
VH: B1 VH with R54Y, N55S, W98S, N103R
VL: B1 VL with Y94S
B18: D37 (antibody, V domains shown)
VH: B1 VH with N52A, R54Y, W98L
VL: B1 VL
B19: D25 (antibody, human IgG4, V domains shown)
VH: B1 VH with T33V, R54Y, W98S
VL: B1 VL with R32A
B20: D30 (antibody, human IgG4, V domains shown)
VH: B1 VH with R54Y, T59W, W98S, Y100M
VL: B1 VL
B21: D23 (antibody, human IgG4, V domains shown)
VH: B1 VH with S28G, R54Y, W98S, M107N
VL: B1 VL with R32A, A51R, H91A
B22: D24 (antibody, human IgG4, V domains shown)
VH: B1 VH with R54K, W98S, Y100L
VL: B1 VL
B23: D46 (antibody, human IgG4, V domains shown)
VH: B1 VH with R54Y, N55S, W98S, S102V
VL: B1 VL
B24: D44 (antibody, human IgG4, V domains shown)
VH: B1 VH with R54Y, W98S, N103L
VL: B1 VL
B25: D50 (antibody, human IgG4, V domains shown)
VH: B1 VH with R54Y, T59A, W98S, N103D, M107N
VL: B1 VL
B26: D40 (antibody, human IgG4, V domains shown)
VH: B1 VH with R54Y, N55T, W98S, Y101W
VL: B1 VL
B27: D26 (antibody, human IgG4, V domains shown)
VH: B1 VH with R54Y, G57R, W98S, M107N
VL: B1 VL
notes: also called optimized anti-CD40 antibody D26
B28: D4 (antibody, V domains shown)
VH: EVMLVESGAELVRPGASVKLSCTASGFKIKDSYIHWMIQRPEQGLEWIGRIDPTNGNTNFDPKFRGKATLTTDTSSNTAYLQLSSLTSEDTAVYYCVPNYYGSRYPFSYWGQGTTVTVSS
VL: QIVLTQSPAIMSASPGEKVTMTCSGSSSVSYMHWFQQKPGNSPKIWIYFTSNLASGVPARFSGSGSGTSYSLTISRMEAGDAATYYCQQGSTYPLTFGAGTKLELK

Experiments:
[1] = biological target: T1, Rhesus monkey CD40 extracellular domain (recombinant) (Rhesus monkey, UniProt F6SNI1 21-193); experiment: ELISA, plate coated with recombinant rhesus monkey CD40 extracellular domain, antibody (human IgG4 format) in serial dilution, anti-human IgG-HRP, OD450
T1 construct: extracellular domain; also called RheCD40
Procedure: (§1) ELISA Binding Assay: The selected monoclonal full-length antibodies D1, D2, D3, D5, D6, or D7 were subjected to binding assays with CD40 extracellular domain of different species, respectively. The assay was designed to identify full-length antibodies that cross-reacted with CD40 of different species. Briefly, the human or Rhesus monkey CD40 prepared in example 1 was dissolved in PBS and coated on […] with 0.1 μg/well followed by incubation at 4° C. overnight. The 96-well plates were washed with TBST before adding antibodies, blocked with 5% milk for 1-2 h at 37° C., and washed again with TBST. Firstly, each antibody sample was diluted to 10 μg/mL, and then serially diluted at a 1:3 ratio. 100 μL of serially diluted antibodies were added to each well and incubated for 1 h at 37° C. After washing with TBST for 6 times, 100 μL of the secondary antibody (goat anti-human IgG-HRP (Sigma. A8667)) was added to each well and incubated for 1 h at 37° C. After washing with TBST for 3 times, TMB was added with 100 μL/well and incubated for 10-20 minutes at 37° C. 2M H₂SO₄ was used to stop the reaction and plates were read for the absorbance at 450 nm. The ELISA results were then analyzed and the binding curves were generated by PRISM.
(§2) The biding affinity of the optimized full length CD40 antibodies with human or rhesus monkey CD40 was evaluated by Elisa according to the corresponding protocol as described in Example 2, and ASKP1240 was used as control.

[2] = biological target: T2, human CD40 extracellular domain (recombinant) (human, UniProt P25942 21-193); experiment: SPR, Biacore 8K; antibody on CM5 chip, hCD40 at various concentrations
T2 construct: Extracellular domain expressed in 293F cells; also called hCD40; CD40-His; not shown: tag (His, Avi-His, mouse Fc or human Fc)
T2 sequence (P25942 21-193): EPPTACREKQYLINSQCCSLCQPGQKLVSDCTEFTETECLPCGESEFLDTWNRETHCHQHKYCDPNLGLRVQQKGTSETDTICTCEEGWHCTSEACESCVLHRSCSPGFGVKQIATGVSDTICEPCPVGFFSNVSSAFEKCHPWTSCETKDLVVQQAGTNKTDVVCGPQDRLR
Procedure: The binding affinity of the optimized anti-CD40 antibodies with human […] was characterized using Biacore 8K (GE). Anti-CD4 (antibodies were stabilized on sensor chip CM5 The affinities for hCD40 at various concentrations were measured. Using the SPR technology, the association and dissociation rates were measured, and binding affinity was determined.

human CD40 on cells [3] = biological target: T3, human CD40 on cells (human, UniProt P25942 21-277); experiment: cell-based or functional assay
T3 sequence (P25942 21-277 limits assumed): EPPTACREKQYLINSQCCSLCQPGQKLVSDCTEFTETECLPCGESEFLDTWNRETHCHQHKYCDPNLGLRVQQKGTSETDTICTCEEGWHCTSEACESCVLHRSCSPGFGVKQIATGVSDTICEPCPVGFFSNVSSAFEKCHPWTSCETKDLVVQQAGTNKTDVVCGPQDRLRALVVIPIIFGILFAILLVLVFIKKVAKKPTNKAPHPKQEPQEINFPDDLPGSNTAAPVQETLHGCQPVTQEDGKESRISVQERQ

[4] = biological target: T2, human CD40 extracellular domain …; experiment: ELISA, plate coated with recombinant human CD40 extracellular domain, antibody (human IgG4 format) in serial dilution, anti-human IgG-HRP, OD450
Procedure: as §1, §2

human CD40 on cells [5] = biological target: T3, human CD40 on cells; experiment: cell-based or functional assay; remark: listed apart in the source

Row | Binder | IC50, HEK-Blue CD40L NF-κB activation assay (SEAP), antibody as human IgG4 (human CD40 on cells [3]) | also measured
1 | B1 | 0.0102 µg/mL | EC50 (read off the curve) [1]: ~0.1 µg/mL; Kd [2]: 2.54 nM; koff [2]: 0.000606 s⁻¹; kon [2]: 238000 M⁻¹ s⁻¹; EC50 (read off the curve) [4]: ~0.2 µg/mL
2 | B2 | 0.0307 µg/mL | –
3 | B3 | 0.0139 µg/mL | –
4 | B4 | 0.0184 µg/mL | –
5 | B5 | 0.0338 µg/mL | –
6 | B6 | 0.0342 µg/mL | –
7 | B7 | 0.0233 µg/mL | –
8 | B8 | 0.0157 µg/mL | –
9 | B9 | 0.0298 µg/mL | –
10 | B10 | 0.0168 µg/mL | –
11 | B11 | 0.0219 µg/mL | –
12 | B12 | 0.0156 µg/mL | –
13 | B13 | 0.0164 µg/mL | –
14 | B14 | 0.0194 µg/mL | –
15 | B15 | 0.03 µg/mL | –
16 | B16 | 0.0212 µg/mL | –
17 | B17 | 0.0124 µg/mL | –
18 | B18 | 0.0211 µg/mL | –
19 | B19 | 0.0273 µg/mL | –
20 | B20 | 0.018 µg/mL | –
21 | B21 | 0.0169 µg/mL | –
22 | B22 | 0.0164 µg/mL | –
23 | B23 | 0.0112 µg/mL | –
24 | B24 | 0.0201 µg/mL | –
25 | B25 | 0.0142 µg/mL | –
26 | B26 | 0.0142 µg/mL | –
27 | B27 | 0.00908 µg/mL | EC50 (read off the curve) [1]: ~0.1 µg/mL; Kd [2]: 2.74 nM; koff [2]: 0.000596 s⁻¹; kon [2]: 218000 M⁻¹ s⁻¹; EC50 (read off the curve) [4]: ~0.2 µg/mL
28 | B28 | – | IC50, HEK-Blue CD40L NF-κB activation assay (SEAP), Fc-3*G4S-CD40L stimulus (human CD40 on cells [5]): 0.0167 µg/mL
